Measured values taken from paper PMC9676404, “Three-dimensional structure of a mycobacterial oligoribonuclease reveals a unique C-terminal tail that stabilizes the homodimer” (The Journal of Biological Chemistry, 2022).

Assays:
[1] = target: Ms_ornΔC (C-terminal deletion mutant of Ms_orn lacking residues 186-209) (Mycobacterium smegmatis mc2155); assay: not stated; oligomeric state of purified Ms_ornΔC, shown in Fig. S3
[2] = target: Orn of Mycobacterium smegmatis (MSMEG_4724, clone B) (Mycobacterium smegmatis mc2155); assay: SEC; Superdex-75 column, Ms_orn with increasing concentrations of Gdm-HCl
[3] = target: Orn of Mycobacterium smegmatis (MSMEG_4724, clone B) (Mycobacterium smegmatis mc2155); assay: SEC; Superdex-75 (10/300) column, 20 mM Tris-HCl pH 8.5, 100 mM NaCl; elution volume compared with molecular weight standards
[4] = target: Orn of Mycobacterium smegmatis (MSMEG_4724, clone B) (Mycobacterium smegmatis mc2155); assay: SEC-MALS; Superdex-75 (10/300) with in-line MALLS and refractive index detectors, room temperature, 20 mM Tris-HCl pH 8.5, 100 mM NaCl, 5% glycerol, 0.5 ml/min; 200 ul of 3 mg/ml Ms_orn or 6 mg/ml Eco_orn
[5] = target: the molecule itself; assay: SEC; Superdex-75 (10/300) column, 20 mM Tris-HCl pH 8.5, 100 mM NaCl; elution volume compared with molecular weight standards

Ms_ornΔC (C-terminal deletion mutant of Ms_orn lacking residues 186-209) (domain or fragment)
stoichiometry N [1]: 2

Orn of Mycobacterium smegmatis (MSMEG_4724, clone B) (enzyme)
stoichiometry N [2]: 2 | stoichiometry N [3]: 2 | stoichiometry N [4]: 2

B1: Orn of Escherichia coli (enzyme, Escherichia coli K-12, UniProt P0A784 1-181, looked up)
chain: MSANENNLIWIDLEMTGLDPERDRIIEIATLVTDANLNILAEGPTIAVHQSDEQLALMDDWNVRTHTASGLVERVKASTMGDREAELATLEFLKQWVPAGKSPICGNSIGQDRRFLFKYMPELEAYFHYRYLDVSTLKELARRWKPEILDGFTKQGTHQAMDDIRESVAELAYYREHFIKL
notes: Oligoribonuclease (Orn) of Escherichia coli K-12; open reading frame of orn amplified from genomic DNA; residues 2-181 traced in the structure; also called oligoribonuclease; not shown: His10-Smt3, N-terminal, cleaved
stoichiometry N [5]: 2
